Laboratory results reported in paper PMC4720525.

Biological target: YY1 (Mus musculus, UniProt Q00899 1-414)
Assay: EMSA

Sequence of YY1 (Q00899 whole entry): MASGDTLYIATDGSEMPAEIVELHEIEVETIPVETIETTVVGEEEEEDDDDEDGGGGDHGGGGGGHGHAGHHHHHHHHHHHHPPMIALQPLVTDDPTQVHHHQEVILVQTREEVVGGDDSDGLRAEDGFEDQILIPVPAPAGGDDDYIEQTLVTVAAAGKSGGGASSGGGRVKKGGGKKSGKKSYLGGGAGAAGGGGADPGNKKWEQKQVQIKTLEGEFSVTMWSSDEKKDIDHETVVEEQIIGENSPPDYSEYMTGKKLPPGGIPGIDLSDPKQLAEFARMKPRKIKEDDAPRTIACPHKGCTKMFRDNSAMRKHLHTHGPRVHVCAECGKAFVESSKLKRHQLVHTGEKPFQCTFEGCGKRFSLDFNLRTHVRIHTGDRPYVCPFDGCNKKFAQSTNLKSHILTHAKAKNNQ

B1: Arid1a promoter 30-bp DNA (dsDNA)
DNA 1: CTCTTCTCTCTTAAAATGGCTGCCTGTCTG
DNA 2: CAGACAGGCAGCCATTTTAAGAGAGAAGAG
binding result: binds
